Test results as given in patent US20210395379A1 (NUMAB THERAPEUTICS, published 2021).
Positions count from the first letter of the chain named. Values belong to the molecule of their own block, whether it stands above or below them.

Legend:
[1] = molecular target: T1, human CD137 expressed on Jurkat cells (human, UniProt Q07011 24-255); assay: Flow cytometry on CD137 expressing Jurkat cells, detection with APC-labelled goat anti-human IgG
[2] = molecular target: T2, human Fc-tagged CD40 (AcroBiosystems, cat. CD0-H5253) (human, UniProt P25942 21-193); assay: SPR (Biacore T200), Fc-tagged CD40 captured by anti-human Fc, scFv as analyte
T2 construct: also called human CD40; not shown: Fc tag
Protocol: (§1) Binding of scFvs to human Fc-tagged CD40 (AcroBiosystems, cat. CD0-H5253) and human Fc-tagged OX40 (Acro-Biosystems, cat. OX0-H5255) was determined by SPR analysis on a T200 device (Biacore, GE Healthcare). In this experiment, Fc-tagged CD40 and OX40 were captured using the Human Antibody Capture kit from GE healthcare (cat. BR-1008-39). After each analyte injection cycle, the anti-human Fc-specific IgG was regenerated and new antigen was captured. The scFvs were injected as analyte using a high concentration of 180 nM of the analyte diluted in running buffer. Association and dissociation time were set to 300 s and 720 s, respectively. Obtained sensorgrams were fitted using the 1:1 binding model.

[3] = molecular target: T3, human Fc-tagged OX40 (Acro-Biosystems, cat. OX0-H5255) (human, UniProt P43489 29-216); assay: SPR (Biacore T200), Fc-tagged OX40 captured by anti-human Fc, scFv as analyte
T3 construct: also called human OX40; not shown: Fc tag
T3 sequence (looked up): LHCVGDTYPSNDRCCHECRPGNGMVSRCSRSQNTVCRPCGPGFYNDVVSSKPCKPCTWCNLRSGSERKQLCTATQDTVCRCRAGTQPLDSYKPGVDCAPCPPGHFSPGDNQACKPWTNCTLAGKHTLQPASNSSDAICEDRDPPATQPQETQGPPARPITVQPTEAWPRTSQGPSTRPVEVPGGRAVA
Protocol: as §1

[4] = molecular target: T1, human CD137 expressed on Jurkat cells; assay: flow cytometry on CD137 expressing Jurkat cells, detection with APC labelled protein L
Protocol: 50,000 CD137 expressing Jurkat cells (or as reference cell line Jurkat cells lacking CD137 expression) were distributed to round bottom non-tissue culture treated 96 well plates. Cells were washed twice with 100 μl PBS by centrifugation at 400×g for 5 min. […] After 1 h incubation at 4° C. on a nutating mixer, cells were washed 3 times with 100 μl staining buffer and centrifugation steps of 5 min at 400×g. […] Plates were incubated 1 h at 4° C. on a nutating mixer, then washed 3 times with 100 μl of staining buffer and resuspended in a final volume of 50 μl of staining buffer. Finally, APC signal of 20,000 events per well was analyzed by flow cytometry using a Novocyte flow cytometer system (ACEA Bioscience).

[5] = molecular target: T4, cynomolgus monkey Fc-tagged CD137 (R&D Systems, cat. 9324-4B-100) (cynomolgus monkey, UniProt A9YYE7 24-186); assay: SPR (Biacore T200), cynomolgus Fc-tagged CD137 captured by anti-human Fc, scFv as analyte
T4 construct: also called cynomolgus CD137; CD137-Fc chimeric protein (cynomolgus); not shown: the Fc tag (and any linker) of the bought chimera (R&D Systems, cat. 9324-4B-100)
Protocol: (§2) In this experiment, Fc tagged human CD137 (R&D Systems, cat. 838-4B-100) was captured using the Human Antibody Capture kit from GE healthcare (cat. BR-1008-39). After each analyte injection cycle, the anti-human Fc-specific IgG was regenerated and new antigen was captured. The scFvs were injected as analyte using a dose response multi-cycle kinetic assay over the captured CD137 with concentrations of the analyte ranging from 0.19 to 45 nM (three-fold dilutions steps) diluted in running buffer. Association and dissociation time were set to 300 s and 720 s, respectively. The obtained sensorgrams were fitted using the 1:1 binding model.
Cross-reactivity to cynomolgus CD137 was measured with cynomolgus monkey Fc-tagged CD137 (R&D Systems, cat. 9324-4B-100) in a similar assay as used to measure binding to human CD137.

[6] = molecular target: T5, Fc tagged human CD137 (R&D Systems, cat. 838-4B-100) (human, UniProt Q07011 24-186); assay: SPR (Biacore T200), Fc tagged human CD137 captured by anti-human Fc, scFv as analyte 0.19-45 nM
T5 construct: Bought Fc chimera; also called CD137 Fc chimera; human CD137 (tagged with Fc); not shown: Fc tag of the bought chimera
Protocol: as §2

T4 sequence (A9YYE7 entry or part of it limits assumed): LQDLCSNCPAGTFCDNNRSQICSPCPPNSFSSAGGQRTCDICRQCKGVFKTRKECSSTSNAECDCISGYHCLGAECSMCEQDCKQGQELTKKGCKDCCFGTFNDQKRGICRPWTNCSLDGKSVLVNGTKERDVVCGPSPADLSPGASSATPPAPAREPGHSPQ
T2 sequence (P25942 21-193 limits assumed): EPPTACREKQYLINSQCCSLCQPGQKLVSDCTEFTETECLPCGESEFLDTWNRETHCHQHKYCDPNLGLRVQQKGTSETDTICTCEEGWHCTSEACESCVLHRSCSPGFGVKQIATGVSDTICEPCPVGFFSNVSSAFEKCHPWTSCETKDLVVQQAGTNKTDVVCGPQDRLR

EC50 (read off the curve) [1]: 0.06 µg/mL
Molecule: urelumab (antibody)

binding result [2]: no binding (tested: 180 nM) | binding result [3]: no binding (tested: 180 nM) | EC50 [4]: 3.99 µg/mL | Maximum binding (relative to urelumab) [4]: 18% | Kd [5]: 2.88 nM | koff [5]: 0.00267 s⁻¹ | kon [5]: 927000 M⁻¹ s⁻¹ | koff [6]: 0.00281 s⁻¹ | kon [6]: 866000 M⁻¹ s⁻¹
B1: PRO1359 (38-27-A11 sc02) (scFv)
scFv: DIQMTQSPSSLSASVGDRVTITCQASQSISNRLAWYQQKPGKAPKLLIYSASTLASGVPSRFSGSGSGTDFTLTISSLQPEDFATYYCQSTYYGNDGNAFGTGTKVTVLGGGGGSGGGGSGGGGSGGGGSEVQLVESGGGLVQPGGSLRLSCAASGFSFSANYYPCWVRQAPGKGLEWIGCIYGGSSDITYDANWTKGRFTISRDNSKNTVYLQMNSLRAEDTAVYYCARSAWYSGWGGDLWGQGTLVTVSS
notes: VL-linker-VH, CDR graft, Vk1/VH3; also called anti-4-1BB scFv

binding result [2]: no binding (tested: 180 nM) | binding result [3]: no binding (tested: 180 nM) | EC50 [4]: 0.148 µg/mL | Maximum binding (relative to urelumab) [4]: 29% | Kd [5]: 0.24 nM | koff [5]: 0.000252 s⁻¹ | kon [5]: 1.05e+06 M⁻¹ s⁻¹ | koff [6]: 0.0003 s⁻¹ | kon [6]: 1.28e+06 M⁻¹ s⁻¹
B2: PRO1360 (38-27-A11 sc03) (scFv)
scFv: B1 scFv with I2F, M4L, A43P, V132S, Y227F, Q244P
notes: VL-linker-VH, full graft, Vk1/VH3
